Results taken from the nanobody polyreactivity screen of Harvey et al. (2022).

Experiment: yeast display, Sf9 membrane polyspecificity reagent, FACS + sequencing; frameworks hold sequencing errors
Summary of the method: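 Polyreactivity labels are assigned by the sorting gate from which each nanobody was recovered. The gates were low and high (top ~1%), set on anti-HA fluorescence for expression and streptavidin fluorescence for reagent binding. Before sorting, galactose-induced (36–48 hours) yeast display cells were stained for 1 hour at 4 °C with 10% biotinylated, detergent-solubilized Sf9 membrane reagent.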

| Sequence | polyreactivity (PSR sort gate) |
| --- | --- |
| QVQLVESGGGLVQAVGSLRLSCAASGFTFERNAMGWYRQAPGKARELVATINGSSDSTYYADSVKGRFTISRDKAKNTVYLQMNSLKPEDTAVYYCNADSITEGNSRYSHFDYWGQGTQVTVSS | low polyreactivity |
| QVQLVESGGGLVQAVGSLRLSCAASGFTFGEYDMGSYRHAPGKERELVAAIDSGGSTYYADSVKRRFTISRDNAKNTVYLQMNSLKPEDTALYYCNADSTYDYYELDYDHWGQGTQVTVSS | low polyreactivity |
| QVQLVESGGGLVQAVGSLRLSCAASGFTFTNYAMGWSRQAPVKEREFVAAISGTGGSTYYADSVKGRFTISRDNAYNTEYLQMNSLKPEDTAVYYCARRRTYPPGRYYYLGQGTQVTVSS | high polyreactivity |
| QVQLVESGGGLVQAVGSLRLSCAASGIIFRNYAMGWYRQAPGKEREWVAAISRSGGSTYYADSVKGRFTISRDNAKNTCYLQMNSLKPEDTAVYYCNAAYWAYNGFSYLMDYWGQGTQVTVSS | low polyreactivity |
| QVQLVESGGGLVQAVGSLRLSCAASGRIFRHNAMGWYRQAPGKEWELVAAISGGGTTYYADSVKGRFTISRDNAKNTVYLQMNSLKPEDTAVYYCAARRRGSVGVGYAYAYYYWGQGTQVTVSS | high polyreactivity |
| QVQLVESGGGLVQAVGSLRLSCAASGRILYWYAMGWYRQAPGKERELVAAINHGDTSTYYADSVKGRFTISRDNAKNTVYLQMNSLIPEDTAVYYCNVRSYVYSRWYQSTWGYYYWGQGTQVTVSS | high polyreactivity |
| QVQLVESGGGLVQAVGSLRLSCAASGRTFGTYAMGWYRQAPGKERELVAAISSGGSTYADSVKGRFTISRDNAKNTVYLQMNSLKPEDTAVYYCNNVRRKQSVLTFDYWGQGTQVTVSS | high polyreactivity |
| QVQLVESGGGLVQAVGSLRLSCAASGSIFRKYVMGWYRQAPGKERELVAVISSGTGTYYADSVKGRFTISRDNAKNSVYLQMNSLKPEDTAVYYCAAKYFGKWYKYYYWGQGTQVTVSS | high polyreactivity |
| QVQLVESGGGLVQAVGSLRLSCAASGSTFDIYAMGWYRQAPGKERELVAAITSGGSTYADSVKGRFTISRDNAKNTVYLQMNSLKPEDTAVYYCNADRWFGNYLHLSFLNDYWGQGNQVTVSS | low polyreactivity |
| QVQLVESGGGLVQAVGSLRLSCAASGSTFRGYTMGWYRQEPGKERELVSAINWSGGDTYYADSVKGRFTISRDNAKNTVYLQMNSLKPEDTAVYYCNTRHTYPQSFILRRDYWGQGTQVTVSS | low polyreactivity |
| QVQLVESGGGLVQAVGSLRLSFAASGFTFWYYPMGWYRQAPGKERELLAAITSSGGSTYYADSEKGRFTISRDYAKITVYLQMNSLKPEDTAVYYCAAGAPYRYYYCGQGTQVTVSS | high polyreactivity |
| QVQLVESGGGLVQAVGSLSLSCAASGLTLGSYAKGAYRQAPGKERELVAAISRRSGRTYYADSVKGLFTISRDNAKNTVYLQINSLKPEDTAGFYCNRGYTAQVYTEFDYWGQGTQVTVSS | low polyreactivity |
| QVQLVESGGGLVQEGGSLRISCAASGRIFYYYVMGGYRQAPGKERELVAGITSRGRTYYADSVKGRFTISRDNAKNTVYLQMNSLKPEVTAVYDCNKVGATWRQWFGYWGQGTQVTVSS | high polyreactivity |
| QVQLVESGGGLVQEGGSLRLICAASGSILGSNAMGWYRQAPGKEREFVAAITWTGGSTYYADSVKGRFTISRDNAKNTVYLQMNSLKREDTAVYYCAKDVKYVKMDYWGQGTQVTVSS | low polyreactivity |
| QVQLVESGGGLVQEGGSLRLSCAASGFIFDGNAMGWYRQAPGKERELVAAMSWDGGTYYADSVKGRFTISRDNAKNTVYLQMNSLKPEDTAVYYCAAEQTQLYSFGWDEYWGQGTQVTVSS | low polyreactivity |
| QVQLVESGGGLVQEGGSLRLSCAASGFIFSSNDMGWYRQPPGKERELVAVISRSGGRTYYADSVKGRFTISRDNAKNTVYLQMNSLKPEDTSVYYCNKKDRLGHSGRDYWGQGTQVTVSS | high polyreactivity |
| QVQLVESGGGLVQEGGSLRLSCAASGFIVSYYTMGWYRQAPGKERELVAAIRSSGGSTYADSVKGRFTISRDNAKNTVYLQMNSLKPEDTAVYYCAAVQTWRWVYARDYWGQGTQVTVSS | high polyreactivity |
| QVQLVESGGGLVQEGGSLRLSCAASGFTIRTYAMGWYRQAPGKERELVAAINTGGGTNYADSVKGRFTISRDNAKNTVYLQMNSLKPEDTAVYYCNSVHYYYYYWYSLYDSWGKGTQVTVSS | high polyreactivity |
| QVQLVESGGGLVQEGGSLRLSCAASGGIFGWYAMGWYRQAPGKERELVATITWRGGRTYYADSVKGRFTISRDNEKNTVYLQMNSLKPEDTAVYYCNAEWLWYDAGYRYTIRDSWGQGTQVTVSS | low polyreactivity |
| QVQLVESGGGLVQEGGSLRLSCAASGGTFYNYAMGWYRQAPGKERELVAAITYSGGITYYADSVKGRFTISRDNAKNTVYLQMNRLKPEDTAVYYCAADGYGNYDQYGYWGQGTQVTVSS | low polyreactivity |
| QVQLVESGGGLVQEGGSLRLSCAASGIIFGYNAMGWYRQAPGKERELVAAISRRGGTTYYADSVKGRLTISRDNSKNTVYLQMNSLKPEDTAVYYCAAQWSPTEHEYNYSGQGTQVTVSS | low polyreactivity |
| QVQLVESGGGLVQEGGSLRLSCAASGIIFYYNAMGWYRQAPGKERELVARITWRAGSTYYADSVKGRFTISRDNAKNTVYLQMNSLKPEDTAVYYCNADHDGLGYYYWGQGTQVTVSS | high polyreactivity |

| Sequence | polyreactivity (PSR sort gate) |
| --- | --- |
| QVQLVESGGGLVQEGGSLRLSCAASGITFLQYAMGWYRQAPGKERELVAVISRGSRTYYADSVKGRFTISRDNAKNTVYLQMNCLQPDDTAVYYCAAVRGLALGYDYWGQGTQVTVSS | high polyreactivity |
| QVQLVESGGGLVQEGGSLRLSCAASGLICQHNARVWSRHAPGKERELVAAISRSAGSSYYADSEKGRFTISRDNAKNTVYLQMNCLKPEDTAVFYCAKRPTPTTKDDTVRYGYWGQGSQVTVSS | low polyreactivity |
| QVQLVESGGGLVQEGGSLRLSCAASGLIFYDNMGWYRQAPGKERELVAAISSSGGSTSYADSVKGRFTISRDNAKNTVYLQMNSLKPEDTAVYYCAADSYPAYLGFVGFDYWGQGTQVTVSS | low polyreactivity |
| QVQLVESGGGLVQEGGSLRLSCAASGNTLRVYAMGRYRQAPGTERELVAAISSSGGSTYYADSVKGRFTISRDNAKNTVYLQMYSLKPEDTAVYYCAKDNGPWFAYDYWGQGTQVTVSS | low polyreactivity |
| QVQLVESGGGLVQEGGSLRLSCAASGRIFATYVMGWYRQAPGKERELVAAISRRGSSTYYADSVKGRFTISRDNAKNTVYLQMNSLKPEDTAVYYCAAVHKVGWSRHYDYWGLGTQVTVSS | high polyreactivity |
| QVQLVESGGGLVQEGGSLRLSCAASGRIFTPYAMGWYRQAPGKERELVAVIRDGSTYYADSVKGRFTISRDNAKNTVYLQMNSLKPEDTAVYYCRYDIWVWWSGAYDYWGQGTQVTVSS | low polyreactivity |
| QVQLVESGGGLVQEGGSLRLSCAASGRLFGTYTMGWYRQAPGKERELVAAISWSGGNTYYADSVKGRFTISRDNAKNTVYLQMNSLKPEDTAVYYCNALYYRPPKWYGYWGQGTQVTVSS | high polyreactivity |
| QVQLVESGGGLVQEGGSLRLSCAASGRTFAHYAMGWYKQAPGKERELVAAISWSGGSTYYADSVKGRFTISRDNPKNTVYLQMNILKPEDTGVYYCNTLGGTEYGYWGPGTQVTVSS | high polyreactivity |
| QVQLVESGGGLVQEGGSLRLSCAASGRTFGVYAMGWYRQAPGKESTYYADSVKGRFTISRDNAKNTVYLQMNSQKQEDTAVYYCAADEWYYIDPSDDYWGQGSQVTVSS | low polyreactivity |
| QVQLVESGGGLVQEGGSLRLSCAASGRTFWQNAMGWYRQAAGKERELVAAIRIGGSTNYAVSVKGRFTISRDNAKNTVYLQMNSLKPEYTAFYYCAARRGYYSRNDYWGQVTQVTVSS | high polyreactivity |
| QVQLVESGGGLVQEGGSLRLSCAASGRTLRYNDMGWYRQAPGKERELVAAISTRGGSTYYADSVKGRFTISRDNAKNTVYLQMYSLKPEDTAVYYCAVTPRIPGHFEDYYWGQGTQVTVSS | low polyreactivity |
| QVQLVESGGGLVQEGGSLRLSCAASGSIFFYYAMGWYRQAPGKERELVAAITSSGDSTYYADSVKGRFTISRDNAKNTVYLQMNSLKPVETAVYYCAALYIGYTGYYYWGQGTQVTVSS | low polyreactivity |
| QVQLVESGGGLVQEGGSLRLSCAASGSIFLFYAMGWYRPAPGKERELVARITSSGGTTYYADSVKGRFTISRDNAKNTVYLQMNSLKPEDTAVYYCAAAYIRRSPYYYWGQGTQVTVSS | high polyreactivity |
| QVQLVESGGGLVQEGGSLRLSCAASGSIFRKYAMGWYRQAPGKERELVAVITTDGSTNYADSVKGRFTISRDNAKNSVYLQMNSMNPEDTAVYYCNAVRSSIGTDIDYWGQGTQVTGSS | low polyreactivity |
| QVQLVESGGGLVQEGGSLRLSCAASGSIFSIYAMGWYRQAPGKERELVAAIDSGTSTTYADSVKGRFTISRDNAKNTVYLQMNSLKPEDTAVYYCAAALYSDVAAVATYGYYWGQGTQVTVSS | low polyreactivity |
| QVQLVESGGGLVQEGGSLRLSCAASGSIFYRNAMGWYRQAPGKERELVAAISSDGSTNYADSVKGRFTISRDNAKNTVYLHMNSLKPEDTAVYYCAAPWTQILDYWGQGTQVTVSS | low polyreactivity |
| QVQLVESGGGLVQEGGSLRLSCAASGSTFPGNAMGWYRQAPGKERELVAAIRDRGTSTYYADSVKGRFTISRDNAKNTVYLQMNSLKPEDTAVYYCAAASRVAKGRWRLYDYWGQGTQVTVSS | high polyreactivity |
| QVQLVESGGGLVQEGGSLRLSCAASGSTFRHNAMGRYRQAPGKERELVAVITDGASTNYADSVKGRFTISRDNAKNTVYLQMNSLKPEDTAVYYCAAYHRGYYTGREYYYWGQGTQVTVSS | low polyreactivity |
| QVQLVESGGGLVQEGGSLRLSCAASGSTFYIYGMGWYRQAPGKERELVARISSGGSTYADSVKGRFTISRDNAKNTVYLQMYSLKPEDTAVYYCAAAAARTYRRYRYEGYFYWGQGTQVTVSS | high polyreactivity |
| QVQLVESGGGLVQEGGSLRLTCAASGIIFTINAMGWYRQAPGKERELVAAIYWGTGTTYYADSVKGRFTISRDNAKNTVYLQMNSLKPEDTAVYYCAADGYDTYGYWGQGTQVTVSS | low polyreactivity |
| QVQLVESGGGLVQEGGSLRVSCAASGRIFANNAMAGYRQAPGKERELLAAISWSGGNTYYADSVKGRFTISRDNAKNTVYVQMNSLKPDDTAVYYCGAGSPRYSNNYVSYKGWDYSCGQGTQVTVSS | high polyreactivity |
